This is an account of results in US20210155697A1 (UNITY BIOTECHNOLOGY, published 2021).

Broadly, the EC50 is the concentration giving half of the maximal effect. The Kd is the free concentration of one partner at which half of the binding sites on the other are occupied at equilibrium, for simple one-to-one binding. As usually defined, the koff is the first-order rate constant of dissociation. What is called kon is the second-order rate constant of association.

Experiment [1] has as its target T1, cynomolgus monkey full-length Tie2 on HEK293 cells (cynomolgus monkey, UniProt G7PS68 23-1124).
T1 construct: whole, on cells; also called HEK293/Cyno Tie2; HEK/cyno Tie2
The experiment is described as follows: flow cytometry on HEK293/Cyno Tie2 cells, mAb at 10 ug/mL. The source says: (§1) Briefly, expression plasmids containing the full-length Tie2 coding sequence for each species were used to transfect primary human endothelial cells (HUVECs) as well as human embryonic kidney (HEK293) cells. A stable cell population was selected by treating transfectants with puromycin antibiotic over the course of 2 weeks and single cell clones were generated using fluorescence activated cell sorting. Upon confirmation of cell surface expression of these Tie2 variants, cell lines were used to determine apparent Kd (EC50) values of anti-Tie2 antibodies on the various Tie2 proteins. […] Cells were labeled with decreasing concentrations of anti-Tie2 antibodies #1, #2, and #3 (10, 5, 2.5, 1, […], 0.63, 0.31, and 0.16 ug/mL) or non-specific hIgG1 antibody (10 ug/mL), followed by labeling with a rabbit anti-human IgG antibody conjugated to an Alexa Fluor 488 fluorophore (20 ug/ml). EC50 values were generated using ForeCyt™ software.
(Flow cytometry measures light scatter and fluorescence of single cells or particles in a stream.)

For experiment [2], the target named is T2, human full-length Tie2 on cells (human, UniProt Q02763 23-1124).
T2 construct: used here for Tie2 native on HUVEC and full-length Tie2 overexpressed on HEK293; also called Human Tie2; huTie2
The experiment can be described thus: flow cytometry on HEK293/Human Tie2 cells, mAb at 10 ug/mL. Also on record: unit not given here.
Description: as §1
Target sequence in this assay (Q02763 23-1124 limits assumed): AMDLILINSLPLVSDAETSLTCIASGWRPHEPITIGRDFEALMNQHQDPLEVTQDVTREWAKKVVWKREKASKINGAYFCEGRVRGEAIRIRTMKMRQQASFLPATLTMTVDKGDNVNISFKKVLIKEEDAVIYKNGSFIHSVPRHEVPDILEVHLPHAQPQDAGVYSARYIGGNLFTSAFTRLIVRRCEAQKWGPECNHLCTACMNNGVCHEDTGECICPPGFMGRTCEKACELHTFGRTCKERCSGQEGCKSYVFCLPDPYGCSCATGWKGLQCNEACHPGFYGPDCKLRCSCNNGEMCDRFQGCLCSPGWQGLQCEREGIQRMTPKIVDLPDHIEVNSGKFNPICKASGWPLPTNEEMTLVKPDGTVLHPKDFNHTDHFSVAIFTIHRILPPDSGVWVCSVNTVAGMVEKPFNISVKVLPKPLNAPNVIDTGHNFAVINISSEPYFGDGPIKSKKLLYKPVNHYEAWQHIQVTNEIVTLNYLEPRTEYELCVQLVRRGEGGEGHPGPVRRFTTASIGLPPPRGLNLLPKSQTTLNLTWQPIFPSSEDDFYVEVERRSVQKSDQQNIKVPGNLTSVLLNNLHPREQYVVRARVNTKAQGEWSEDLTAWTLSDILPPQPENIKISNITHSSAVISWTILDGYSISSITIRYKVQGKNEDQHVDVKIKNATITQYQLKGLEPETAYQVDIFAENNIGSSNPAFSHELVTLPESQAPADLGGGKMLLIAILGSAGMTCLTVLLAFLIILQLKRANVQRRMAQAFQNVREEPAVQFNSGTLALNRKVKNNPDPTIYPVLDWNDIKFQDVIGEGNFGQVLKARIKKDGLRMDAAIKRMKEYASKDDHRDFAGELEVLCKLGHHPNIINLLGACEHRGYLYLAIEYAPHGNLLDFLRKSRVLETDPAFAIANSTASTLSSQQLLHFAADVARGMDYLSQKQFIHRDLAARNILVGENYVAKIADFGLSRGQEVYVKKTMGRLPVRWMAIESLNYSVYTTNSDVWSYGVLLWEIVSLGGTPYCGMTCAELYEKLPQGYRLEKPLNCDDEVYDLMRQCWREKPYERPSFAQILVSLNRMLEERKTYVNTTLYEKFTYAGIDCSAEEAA

Experiment [3] deals with T3, murine full-length Tie2 on HEK293 cells (mouse, UniProt Q02858 23-1122).
T3 construct: whole, on cells; also called HEK293/Murine Tie2; HEK/mTie2
The experiment is described as follows: flow cytometry on HEK293/Murine Tie2 cells, mAb at 10 ug/mL.
Description: as §1

The target of experiment [4] is T2, human full-length Tie2 on cells. The experiment is described as follows: flow cytometry on HUVEC; Apparent Kd (EC50 binding).
Description: as §1

The target of experiment [5] is T4, rat full-length Tie2 on HEK cells (rat, UniProt A0ABK0L6J5 19-1116).
T4 construct: whole, on cells; also called HEK/ratTie2
The experiment is described as follows: flow cytometry on HEK/ratTie2 cells; Apparent Kd (EC50 binding).
Description: as §1

The target in experiment [6] is T5, rabbit full-length Tie2 on HEK cells (rabbit).
T5 chain: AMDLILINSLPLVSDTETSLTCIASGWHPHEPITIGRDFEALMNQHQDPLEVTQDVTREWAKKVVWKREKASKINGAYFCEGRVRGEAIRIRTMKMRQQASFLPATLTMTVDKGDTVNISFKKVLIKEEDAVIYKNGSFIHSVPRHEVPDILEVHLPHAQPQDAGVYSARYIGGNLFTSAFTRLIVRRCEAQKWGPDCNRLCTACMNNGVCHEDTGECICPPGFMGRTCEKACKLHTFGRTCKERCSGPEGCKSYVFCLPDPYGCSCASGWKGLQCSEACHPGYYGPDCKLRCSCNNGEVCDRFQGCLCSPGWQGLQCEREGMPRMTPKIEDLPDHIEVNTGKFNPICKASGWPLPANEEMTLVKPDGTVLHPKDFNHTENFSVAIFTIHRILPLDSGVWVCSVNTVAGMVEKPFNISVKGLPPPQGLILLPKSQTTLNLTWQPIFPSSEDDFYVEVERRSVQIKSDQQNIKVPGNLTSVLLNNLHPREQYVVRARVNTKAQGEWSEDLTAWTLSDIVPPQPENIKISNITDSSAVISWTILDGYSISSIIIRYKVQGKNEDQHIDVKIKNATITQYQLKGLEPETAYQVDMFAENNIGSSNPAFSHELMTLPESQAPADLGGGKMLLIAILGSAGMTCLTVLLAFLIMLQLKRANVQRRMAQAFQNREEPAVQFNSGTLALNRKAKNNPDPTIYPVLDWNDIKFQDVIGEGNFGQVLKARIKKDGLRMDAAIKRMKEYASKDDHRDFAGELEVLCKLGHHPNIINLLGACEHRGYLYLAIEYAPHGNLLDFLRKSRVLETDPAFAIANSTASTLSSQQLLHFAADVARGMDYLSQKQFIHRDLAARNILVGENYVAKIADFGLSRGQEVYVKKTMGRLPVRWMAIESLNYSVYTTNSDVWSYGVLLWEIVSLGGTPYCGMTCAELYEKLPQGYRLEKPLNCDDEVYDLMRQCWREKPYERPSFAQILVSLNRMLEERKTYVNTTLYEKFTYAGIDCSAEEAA
The experiment can be described thus: flow cytometry on HEK/RbTie2 cells; Apparent Kd (EC50 binding).
Description: as §1

The target of experiment [7] is T2, human full-length Tie2 on cells. The experiment is described as follows: flow cytometry on HEK/huTie2 cells; Apparent Kd (EC50 binding).
Description: as §1

The target in experiment [8] is T1, cynomolgus monkey full-length Tie2 on …. The experiment can be described thus: flow cytometry on HEK/cyno Tie2 cells; Apparent Kd (EC50 binding).
Description: as §1

The target of experiment [9] is T2, human full-length Tie2 on cells. The experiment is described as follows: cell-based or functional assay.
The target in experiment [10] is T6, recombinant human Tie2 ECD protein (human, UniProt Q02763 23-748).
T6 construct: also called human Tie2 extracellular domain
The experiment can be described thus: SPR (BIACORE), Tie2 ECD immobilized on CM5, Fab as analyte, 25 C. Here is the method:
(§2) BIACORE™ (BIAcore, Inc., Piscataway, N.J.) was performed at 25° C. with immobilized human, rat or mouse Tie2 ECD antigens on carboxymethylated dextran biosensor chips (CM5) chips at about 10 response units (RU). CM5 chips were activated with N-ethyl-N′-(3-dimethylaminopropyl)-carbodiimide hydrochloride (EDC) and N-hydroxysuccinimide (NFIS) according to the supplier's instructions. All Tie2 ECD antigens were diluted with 10 mM sodium acetate, pH 4.8, to […] before injection at a flow rate of 5 μl/minute to achieve approximately 10 RU of coupled protein. Following the injection of each Tie2 ECD, 1 M ethanolamine was injected to block unreacted groups. For kinetics measurements, two-fold serial dilutions of the antibody clone #3 Fab (0.78 nM to 500 nM) were injected in PBS with 0.05% polysorbate 20 (TWEEN™-20) surfactant (PBST) at 25° C. at a flow rate of approximately 25 μl/min. Association rates (kon) and dissociation rates (koff) were calculated using a simple one-to-one Langmuir binding model (BIACORE™ Evaluation Software version 3.2) by simultaneously fitting the association and dissociation sensorgrams. The equilibrium dissociation constant (KD) was calculated as the ratio koff/kon. See, for example, Chen et al., J. Mol. Biol. 293:865-881 (1999).

For experiment [11], the target named is T7, recombinant mouse Tie2 ECD protein (mouse, UniProt Q02858 23-746).
T7 construct: extracellular domain
The experiment is described as above. On the procedure:
as §2

The next experiment deals with T8, Rat Tie2 ECD (rat, UniProt A0ABK0L6J5 19-740).
T8 construct: extracellular domain
The experiment is described as above. Here is the method: as §2

T3 sequence (Q02858 23-1122): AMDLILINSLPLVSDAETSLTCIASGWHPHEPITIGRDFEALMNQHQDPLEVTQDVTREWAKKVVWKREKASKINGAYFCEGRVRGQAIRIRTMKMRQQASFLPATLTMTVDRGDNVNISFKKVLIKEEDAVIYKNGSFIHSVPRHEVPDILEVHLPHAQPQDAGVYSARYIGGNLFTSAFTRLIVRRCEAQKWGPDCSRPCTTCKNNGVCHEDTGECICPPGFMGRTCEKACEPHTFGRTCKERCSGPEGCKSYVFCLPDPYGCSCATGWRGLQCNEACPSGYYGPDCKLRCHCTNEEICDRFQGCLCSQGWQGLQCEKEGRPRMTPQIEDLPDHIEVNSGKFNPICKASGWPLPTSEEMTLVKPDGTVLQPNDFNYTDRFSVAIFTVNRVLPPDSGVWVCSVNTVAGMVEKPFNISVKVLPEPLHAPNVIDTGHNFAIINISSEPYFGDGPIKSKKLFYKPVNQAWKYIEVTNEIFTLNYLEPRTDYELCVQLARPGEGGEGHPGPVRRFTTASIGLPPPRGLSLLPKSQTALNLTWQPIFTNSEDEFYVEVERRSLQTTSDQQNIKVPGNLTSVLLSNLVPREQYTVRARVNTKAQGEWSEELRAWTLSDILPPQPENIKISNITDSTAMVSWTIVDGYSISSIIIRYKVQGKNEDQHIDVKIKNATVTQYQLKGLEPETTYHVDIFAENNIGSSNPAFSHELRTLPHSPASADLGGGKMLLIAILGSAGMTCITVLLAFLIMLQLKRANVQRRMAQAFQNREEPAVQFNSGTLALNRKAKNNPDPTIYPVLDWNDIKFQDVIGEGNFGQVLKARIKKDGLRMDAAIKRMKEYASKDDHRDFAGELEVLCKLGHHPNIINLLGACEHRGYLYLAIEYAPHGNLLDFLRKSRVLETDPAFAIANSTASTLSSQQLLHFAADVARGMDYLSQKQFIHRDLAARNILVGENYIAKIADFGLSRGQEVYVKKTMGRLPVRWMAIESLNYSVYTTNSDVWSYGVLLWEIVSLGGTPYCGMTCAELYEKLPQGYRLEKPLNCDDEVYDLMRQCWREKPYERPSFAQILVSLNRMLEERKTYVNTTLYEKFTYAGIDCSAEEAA
T6 sequence (Q02763 23-748 limits assumed): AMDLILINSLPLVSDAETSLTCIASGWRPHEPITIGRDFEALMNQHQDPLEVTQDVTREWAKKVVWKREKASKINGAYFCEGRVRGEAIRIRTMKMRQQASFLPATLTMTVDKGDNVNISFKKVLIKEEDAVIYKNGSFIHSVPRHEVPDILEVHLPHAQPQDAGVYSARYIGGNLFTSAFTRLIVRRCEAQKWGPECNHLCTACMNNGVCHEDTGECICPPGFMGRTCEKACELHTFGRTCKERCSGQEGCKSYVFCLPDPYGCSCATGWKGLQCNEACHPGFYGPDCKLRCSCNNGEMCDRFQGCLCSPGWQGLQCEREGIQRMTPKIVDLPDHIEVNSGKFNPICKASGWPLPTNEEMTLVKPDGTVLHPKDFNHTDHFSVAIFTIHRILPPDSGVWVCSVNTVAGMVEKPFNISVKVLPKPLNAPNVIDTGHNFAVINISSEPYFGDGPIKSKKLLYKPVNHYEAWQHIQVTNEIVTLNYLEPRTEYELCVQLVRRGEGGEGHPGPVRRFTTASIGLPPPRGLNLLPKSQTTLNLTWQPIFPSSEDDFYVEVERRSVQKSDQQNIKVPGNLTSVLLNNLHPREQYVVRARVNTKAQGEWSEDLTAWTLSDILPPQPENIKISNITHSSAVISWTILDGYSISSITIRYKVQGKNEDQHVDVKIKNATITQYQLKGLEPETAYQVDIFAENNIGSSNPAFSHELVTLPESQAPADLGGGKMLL
T7 sequence (Q02858 23-746): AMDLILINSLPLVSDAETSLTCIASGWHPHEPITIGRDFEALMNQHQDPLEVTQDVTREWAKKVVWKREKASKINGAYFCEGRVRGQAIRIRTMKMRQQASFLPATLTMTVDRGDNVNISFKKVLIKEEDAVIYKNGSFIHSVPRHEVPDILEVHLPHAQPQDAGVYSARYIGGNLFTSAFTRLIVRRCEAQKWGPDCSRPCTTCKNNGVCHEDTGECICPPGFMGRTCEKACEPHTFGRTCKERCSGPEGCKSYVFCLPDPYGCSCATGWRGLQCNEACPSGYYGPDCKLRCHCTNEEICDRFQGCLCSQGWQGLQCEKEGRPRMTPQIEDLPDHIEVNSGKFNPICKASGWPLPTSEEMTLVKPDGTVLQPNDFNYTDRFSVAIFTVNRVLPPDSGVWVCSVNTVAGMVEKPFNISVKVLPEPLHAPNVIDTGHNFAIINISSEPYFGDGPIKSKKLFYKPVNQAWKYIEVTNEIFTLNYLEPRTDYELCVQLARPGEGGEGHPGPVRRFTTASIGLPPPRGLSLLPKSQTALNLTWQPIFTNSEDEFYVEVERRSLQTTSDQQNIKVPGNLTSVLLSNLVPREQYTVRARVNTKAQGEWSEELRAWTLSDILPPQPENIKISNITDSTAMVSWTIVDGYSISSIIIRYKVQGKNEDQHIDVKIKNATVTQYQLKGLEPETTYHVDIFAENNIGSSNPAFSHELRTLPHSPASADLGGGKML

B1: human anti-Tie2 antibody #2 (antibody, V domains shown)
VH: DVQLVESGGGVVRPGESLRLSCAASGFSFINFAMTWVRQAPGEGPEWVSLISDDGRGNRPYYADSVKGRFTISRDNSKNILYLQMNSLRVEDTATYYCAKVSWDVFFDYWGLGTVVTVSS
VL: EIVLTQSPGTVSLSPGERVTLSCRASQPIDVYLAWYQQKPGQAPRLLIYGANRRAIDIPDRFSGSGSGTEFTLTINSLQNEDFAVYFCQQYMTWPPVTFGGGTKVEIK
notes: also called Ab #2; Antibody Clone # 2
For the molecule B1, the results for the “Cross-Reactivity Screen (mAb at 10 ug/mL)” value (from here on “Cross-Reactivity Screen”) in [1], in [2] and in experiment [3] were 53.2, 64.9 and 41.7, respectively. In addition, the EC50 is 1 nM in experiment [4]; 1.4 nM in [5]; 4.1 nM in experiment [6]; 2.7 nM in experiment [7]; 7.7 nM in [8]. Also, the “EC50 of pAkt relative to total Akt in HUVEC cells (western blot, quantitative fluorescence imaging)” value (from here on “EC50 of pAkt relative to total Akt”) in experiment [9] amounted to 0.48 nM.

B2: anti-Tie2 antibody #31 (antibody, V domains shown)
VH: DVQLVESGGGVVRPGESPRLSCAASGFSFINFAMTWVRQAPGEGPEWVSLISDDGRGNRPYYADSVKGRFTISRDNSKNILYLQMNSLRVEDTATYYCAKVSWDVFFDYWGLGTLVTVSS
VL: EIVLTQSPGTVSLSPGERVTLSCRASQPIDVYLAWYQQKPGQAPRLLIYGANRRAIDIPDRFSGSGSGTEFTLTINSLQNEDFAVYFCQQYMTWPPVTFGGGTKVEIK
notes: also called Ab #31; Antibody Clone # 31
Regarding B2, the “Cross-Reactivity Screen” value in experiment [1] was 47.5; in experiment [2], 65.3; in [3], 28.5.

B3: anti-Tie2 antibody #5 (antibody, V domains shown)
VH: DVQLVESGGGVVRPGESLRLSCTASGFSFDVYAMTWVRQAPGKGLEWLTLISGTGRMTYYADSVKGRFTVSRDNSKKTLYLQMNSLRAEDTAVYYCAKDPFGHGFFDYWGLGTLVTVSS
VL: EIVLTQSPGTLSLSPGERATLSCRASQTVGSKLAWYQQKPGQAPRLLIYDASTRATGIPDRFSGSGSGTDFTLTISSLQSEDFAVYYCQQYNNWPPLTFGGGTKVEIK
notes: also called Ab #5; Antibody Clone # 5
As to B3, the “Cross-Reactivity Screen” value in [1] came out at 73.1; in experiment [2], 60.2; in experiment [3], 0.2.

B4: anti-Tie2 antibody #6 (antibody, V domains shown)
VH: DVQLVESGGGVVRPGESLRLSCTASGFSFDVYAMTWVRQAPGKGLEWLTLISGTGRMTYYADSVKGRFTVSRDNSKKTLYLQMNSLRAEDTAVYYCAKDPFGHGFFDYWGLGTLVTVSS
VL: EIVLTQSPGTLTLSPGETATLTCRASQSVNRNLAWYQEKPDQAPRLLIYDARTRATGVPDRFSGSGSGTDFTLTINSLQSEDFAVYVCQQYYDWPPFTFGGGTKVEIK
notes: also called Ab #6; Antibody Clone # 6
In the case of B4, the figures for the “Cross-Reactivity Screen” value in experiment [1], in experiment [2] and in experiment [3] were 78.8, 63.7 and 0.3, respectively.

B5: antibody clone #3 Fab (Fab, V domains shown)
VH: DVQLVESGGGVVRPGESLRLSCTASGFTFDSYGMSWVRQAPGKGLEWVSSINVGDNTYYADSVRGRFIISRDSSRNTLYLQMNSLTAEDTAVYYCANWNSFFDYWGLGTLVTVSS
VL: EIVLTQSPGTLSLSPGEIATLSCRASQNVRSDLAWYQQKPGQAPRLLIYDASNRATGIPDRFSGSGSGTDFTLTISSLQSEDFAVYYCQQYSNWPPLTFGGGTKVEIK
Regarding B5, in [10], the Kd was found to be 2.34 nM, the koff was found to be 0.000377 s⁻¹ and the kon was found to be 161000 M⁻¹ s⁻¹. Further, in experiment [11], the Kd turned out to be 3.21 nM, the koff was found to be 0.000876 s⁻¹ and the kon worked out at 273000 M⁻¹ s⁻¹. In the experiment with Rat Tie2 ECD, this molecule came in with an equilibrium dissociation constant (Kd) of 2.56 nM and a kon of 254000 M⁻¹ s⁻¹.

B6: Angiopoietin-1 (ligand, UniProt Q15389 20-498, looked up)
chain: SNQRRSPENSGRRYNRIQHGQCAYTFILPEHDGNCRESTTDQYNTNALQRDAPHVEPDFSSQKLQHLEHVMENYTQWLQKLENYIVENMKSEMAQIQQNAVQNHTATMLEIGTSLLSQTAEQTRKLTDVETQVLNQTSRLEIQLLENSLSTYKLEKQLLQQTNEILKIHEKNSLLEHKILEMEGKHKEELDTLKEEKENLQGLVTRQTYIIQELEKQLNRATTNNSVLQKQQLELMDTVHNLVNLCTKEGVLLKGGKREEEKPFRDCADVYQAGFNKSGIYTIYINNMPEPKKVFCNMDVNGGGWTVIQHREDGSLDFQRGWKEYKMGFGNPSGEYWLGNEFIFAITSQRQYMLRIELMDWEGNRAYSQYDRFHIGNEKQNYRLYLKGHTGTAGKQSSLILHGADFSTKDADNDNCMCKCALMLTGGWWFDACGPSNLNGMFYTAGQNHGKLNGIKWHYFKGPSYSLRSTTMMIRPLDF
With B6, the “EC50 of pAkt relative to total Akt” value in experiment [9] came out at 0.54 nM.

B7: human anti-Tie2 antibody #1 (antibody, V domains shown)
VH: DVQLVESGGGVVRPGESLRLSCAASGFTFSSYAMSWVRQAPGEGLEWVARISDYTIYYADSVKGRFTISRDNSKNTLYLQMNSLRAEDTAVYYCAKSGPKSGKYWNNFFDSWGLGTLVTVSS
VL: EIVLTQSPGTLSVSPGERATLTCRASQSVKTDLAWYQQKPGQAPRLLIYGATTRATGIPARFSGSGSGTEFTLTITNLQSEDFAVYYCQQYYVWPPLTFGGGTKVEIK
notes: also called Ab #1; Antibody Clone # 1
For the molecule B7, the “Cross-Reactivity Screen” value in [1] turned out to be 74.1; in [2] it was 60.7; in experiment [3] it was 0.4. In addition, the EC50 in experiment [4] was found to be 2 nM; in [7], 8 nM; in experiment [8] it was 7.8 nM. The “EC50 of pAkt relative to total Akt” value in experiment [9] was found to be 0.91 nM.
